The target of test [1] is T1, recombinant human IL-25 protein (human, UniProt Q9H293 33-177).
T1 sequence: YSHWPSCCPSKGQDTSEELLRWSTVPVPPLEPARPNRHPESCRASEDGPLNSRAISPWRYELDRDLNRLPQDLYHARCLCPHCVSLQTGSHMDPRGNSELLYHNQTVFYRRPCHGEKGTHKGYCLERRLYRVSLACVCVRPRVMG
The test is described as follows: cell-based or functional assay.

Test [2] deals with T1, recombinant human IL-25 protein. Description: BLI (Octet), antibody captured on anti-human Fc biosensor, human IL-25 as analyte. How it is done:
The binding kinetics of the disclosed anti-IL-25 antibodies to recombinant human IL-25 was determined by Octet® Bio-Layer Interferometry (BLI) systems by Sartorius. The assay uses anti-IL-25 monoclonal antibodies as the ligand and recombinant human IL-25 protein as the analyte.
Briefly, the assays were performed by first capturing 5 μg/ml of anti-IL-25 antibodies using anti-human Fc Octet biosensors. The mAb-captured biosensors were then submerged in wells containing serially diluted human IL-25 for 4-6 minutes, followed by a 10-15 minute dissociation time. The binding sensorgrams were collected and analyzed by the Octet Data Analysis software.

Test [3] shares this target. The test is described as follows: cell-based or functional assay. This is another data set of the same source.
Test [4] deals with T2, recombinant cynomolgus IL-25 protein (cynomolgus monkey, UniProt Q9H293 33-177 (human entry), limits assumed).
T2 construct: Bought (Sino Biological Inc, customized order); also called cyno IL-25
T2 chain: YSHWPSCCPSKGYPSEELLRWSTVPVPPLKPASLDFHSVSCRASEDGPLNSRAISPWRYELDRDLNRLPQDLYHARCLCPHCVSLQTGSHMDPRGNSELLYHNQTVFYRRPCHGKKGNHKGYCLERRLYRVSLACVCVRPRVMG
Description: ELISA: recombinant cynomolgus IL-25 coated on the plate, detection with goat-anti-human Kappa Light Chain antibody HRP, ABTS, OD 405. How it is done:
In another study, the ability of five disclosed anti-IL-25 antibodies (IL25Ab1 to Ab5) binding to cynomolgus IL-25 was evaluated using ELISA. Briefly, recombinant human IL-25 protein (Acro, catalog no: IL5-H4221, lot no: 401-20CNF1-UT) or recombinant cynomolgus IL-25 protein (Sino Biological Inc, catalog no: customized order, lot no: MB17MA2715) was directly coated to ELISA plates, respectively. Recombinant antibodies were then added to the plates followed by detection using goat-anti-human Kappa Light Chain antibody HRP (Novus, catalog no: NBP1-75064, Lot no: 68-188-010920). After the addition of ABTS (Moss Inc., catalog no: ABTS-1000, Lot no: 03086202) substrate, ELISA plates were read using an ELISA plate reader (Bioteck).

The target of test [5] is T2, recombinant cynomolgus IL-25 protein. Description: ELISA, IL-25 coated, goat anti-human kappa light chain-HRP detection. How it is done:
(§1) In this study, the ability of three humanized anti-IL-25 antibodies generated in hIgG1 (IL25Ab6 to Ab8) and hIgG1 YTE formats (IL25Ab9 to Ab11) binding to both human, mouse and cynomolgus IL-25 was evaluated using ELISA. Briefly, recombinant human IL-25 protein (Acro, catalog no: IL5-H4221, lot no: 401-20CNF1-UT), recombinant mouse IL-25 protein (Sino Biological Inc, catalog no: 50138-M07H, lot no: LC15AP0607) or recombinant cynomolgus IL-25 protein (Sino Biological Inc, catalog no: customized order, lot no: MB17MA2715) was directly coated to ELISA plates, respectively. Recombinant antibodies were then added to the plates followed by detection using goat-anti-human Kappa Light Chain antibody HRP (Novus, catalog no: NBP1-75064, Lot no: 68-188-010920). After the addition of ABTS (Moss Inc., catalog no: ABTS-1000, Lot no: 03086202) substrate, ELISA plates were read using an ELISA plate reader (Bioteck).
A general note: In an ELISA, binding on a coated surface is turned into a signal by an enzyme label.

Test [6] concerns the target T1, recombinant human IL-25 protein. The test is described as above. How it is done: as §1
In test [7] the target is T3, recombinant mouse IL-25 protein (mouse, UniProt Q8VHH8 17-169).
T3 construct: Bought (Sino Biological Inc, catalog no: 50138-M07H)
T3 sequence: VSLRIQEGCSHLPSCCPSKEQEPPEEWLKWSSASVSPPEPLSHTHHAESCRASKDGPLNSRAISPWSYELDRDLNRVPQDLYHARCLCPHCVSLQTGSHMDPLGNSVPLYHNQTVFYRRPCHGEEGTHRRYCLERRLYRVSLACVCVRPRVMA
Described as above. How it is done: as §1

Test [8] deals with T1, recombinant human IL-25 protein. The test is described as follows: cell-based or functional assay. This is another data set of the same source.
Test [9] has the same target. The test is described as follows: ELISA, IL-25 coated, goat anti-human IgG-HRP detection. How it is done: (§2) In this study, the ability of five disclosed anti-IL-25 antibodies (IL25Ab1 to Ab5) binding to both human and mouse IL-25 was evaluated using ELISA. Briefly, recombinant human IL-25 protein (Acro, catalog no: IL5-H4221, lot no: 401-20CNF1-UT) or recombinant mouse IL-25 protein (Sino Biological Inc, catalog no: 50138-M07H, lot no: LC15AP0607) was directly coated to ELISA plates, respectively. Recombinant antibodies were then added to the plates followed by detection using goat-anti-human IgG-HRP (Jackson ImmunoResearch, catalog no: 109-035-098, Lot no: 157400). After the addition of ABTS (Moss Inc., catalog no: ABTS-1000, Lot no: 03086202) substrate, ELISA plates were read using an ELISA plate reader (Bioteck).

In test [10] the target is T3, recombinant mouse IL-25 protein. Described as above. How it is done: as §2
Test [11] addresses T1, recombinant human IL-25 protein. The test is described as follows: cell-based or functional assay. This is another data set of the same source.
Test [12] shares this target. Description: cell-based or functional assay. This is another data set of the same source.
Test [13] has the same target. Description: cell-based or functional assay. This is another data set of the same source.

Like-named read-outs stand apart in the source and are kept apart here.

Usually Kd stands for the concentration at which binding is half-saturated. In general, koff refers to the rate constant with which the complex falls apart. The term kon denotes a measure of how fast the partners come together. One may read the EC50 (read off the curve) as the midpoint of the concentration-response curve. What is called EC50 is the midpoint of the concentration-response curve.

B1: IL25Ab3 (antibody, V domains shown)
VH: EVQLQQSGPELVKPGGSVRISCKASGYSFTGYTMNWVKQSHGKNLEWIGLINPDNGGTSHKQRFMGKATLTVDKSSSTAYMELLSLTSEDSAVYYCAREGYYGPSPFHHYAMDYWGQGTSVTVSS
VL: DIQMTQTTSSLSASLGDRVTISCSASQDISNYLNWYQQKPDGTIKLLIYYTSTLHSGVPSRFSGSGSGTDYSLTISNLEPEDIATYYCQQYSKLPYTFGGGTKLEIK
notes: detected with anti-human IgG or anti-human kappa reagents; also called anti-IL-25Ab3; mouse origin of anti-IL-25 specific antibody
Regarding B1, the “IC50, IL-25 induced CXCL1 production in HT-29 cells” value (from here on “IC50 … in HT-29 cells”) in test [1] worked out at 67 pM; in test [11] it was 144 pM. Besides, the Kd in test [2] is < 1 pM. The off-rate constant (koff) in test [2] was < 1e-07 s⁻¹. Besides, the kon in test [2] turned out to be 875000 M⁻¹ s⁻¹. For the same molecule, the “IC50, IL-25 induced NF-kB signaling (SEAP) in HEK-Blue IL-17 reporter cells” value (“IC50, IL-25 induced NF-kB signaling” below) in [3] stood at 49 pM; in test [13], 37 pM. Moreover, in test [4], the 50% effective concentration (EC50 (read off the curve)) was ~100 pM. Further, the EC50 in [5] was 364 pM; in [6] it was 506 pM; in [7], 390 pM; in test [9], 22 pM; in [10], 13 pM. For the same molecule, the “IC50, IL-25 induced IL-5 production in human PBMC” value (“IC50 … in human PBMC” for short) in [8] came to 302 pM; in test [12], 160 pM.

B2: IL25Ab5 (antibody, V domains shown)
VH: QVQLQQWGAGLLKPSETLSLTCAVYGGSFSAYYWSWIRQSPGKGLEWIGEINHGGNTNYSPSLKSRVTISVDTSKSQFSLKLSSVTAADTAAYYCARGPGITSWAFDFWDQGTMVTVSS
VL: DIQMTQSPSSLSASVGDRVTIACQASQDINNYLNWYQQKPGKAPKLLIYDASNLETGVPSRFSGNGSGTDFTFTISSLQPEDIATFYCQQYDTLPYTFGQGTKLEIR
In the case of B2, the “IC50 … in HT-29 cells” value in [1] amounted to 77 pM. In test [2], the equilibrium dissociation constant (Kd) is < 1 pM, the dissociation rate constant (koff) was < 1e-07 s⁻¹ and the kon was found to be 2.48e+06 M⁻¹ s⁻¹. For the same molecule, in test [3], the “IC50, IL-25 induced NF-kB signaling” value came to 61 pM. Also, the concentration giving a half-maximal response (EC50 (read off the curve)) in test [4] is ~200 pM. Moreover, the EC50 in [9] is 10 pM. Further, the 50% effective concentration (EC50) in [10] was found to be 35 pM. Further, in test [12], the “IC50 … in human PBMC” value was 260 pM.

B3: IL25Ab2 (antibody, V domains shown)
VH: QVTLKESGPGILQPSQTLSLTCSFSGFSLSTSGMGVGWIRQPSGKGLEWLAHIWWDDVKQYNPALQSRLTISKDTSSSQVFLKIASVDIADIATYYCARIGPVHHGFPYWGQGALVTVSS
VL: QIVLTQSPAIMSAFPGEKVTMSCSASSSVNYMYWHQQKPGSSPRLLIYDTSNLASGVPVRFSGSGSGTSYSLTISRMEAEDAATYYCQQWTSYPPMYTFGGGTKLEIK
Turning to B3, the “IC50 … in HT-29 cells” value in test [1] was found to be 89 pM. Further, in test [2], the Kd was < 1 pM, the koff is < 1e-07 s⁻¹ and the on-rate (kon) was 1.36e+06 M⁻¹ s⁻¹. The “IC50, IL-25 induced NF-kB signaling” value in test [3] is 68 pM. Also, the concentration giving a half-maximal response (EC50 (read off the curve)) in test [4] was ~100 pM. Also, the EC50 in test [9] came to 17 pM. Besides, the EC50 in test [10] is 12 pM. Also, the “IC50 … in human PBMC” value in test [12] turned out to be 140 pM.

B4: IL25Ab4 (antibody, V domains shown)
VH: QVTLKESGPGILQPSQTLSLTCSFSGFSLSTSGMGVSWIRQPSGKGLEWLAHIYWDDAKFYNPSLKSRVTISKDTSRNQVFLRITSVDTADIATYYCARRGYDNYGGFVDWGQGTLVTVSS
VL: ENVLIQSPAIMSASLGEKVTMSCRASSSVNYMYWYQQKSDAPPKLWIYYTSNLAPGVPGRFSGSGSGNSYSLTISSMEGEDAATYYCQQFTSYPYMYTFGGGTKLEIK
Regarding B4, the “IC50 … in HT-29 cells” value in test [1] is 76 pM. In test [2], the Kd was < 1 pM, the dissociation rate constant (koff) was < 1e-07 s⁻¹ and the on-rate (kon) was determined as 1.2e+06 M⁻¹ s⁻¹. Further, the “IC50, IL-25 induced NF-kB signaling” value in test [3] was found to be 73 pM. Moreover, the “EC50 (read off the curve)” value in [4] is ~100 pM. Besides, the EC50 in [9] was found to be 34 pM. Besides, in test [10], the EC50 was 26 pM. The “IC50 … in human PBMC” value in test [12] came out at 150 pM.

B5: IL25Ab1 (antibody, V domains shown)
VH: QVQLKESGPGLVAPSQSLSITCTVSGFSLTDYGINWVRQPPGKGLEWLGMIWGDGVTHYNSVLKSRLSISKDNSMSQIFLKMNSLQTDDTARYYCARTLFYDGTLYYYAMDYWGQGTSVTVSS
VL: QIVLTQSPATMSASPGEKVTMTCSASSSVTYMYWYQQKTGSSPRLLIYDTPNLASGVPVRFSGSGSGTSYSLTISRVEAEDAATYYCQQWSSYPHTWTFGGGTKLEIK
On to B5, for which the “IC50 … in HT-29 cells” value in test [1] is 71 pM. In addition, in [2], the Kd was < 1 pM, the dissociation rate constant (koff) was < 1e-07 s⁻¹ and the kon was 1.25e+06 M⁻¹ s⁻¹. In test [3], the “IC50, IL-25 induced NF-kB signaling” value turned out to be 52 pM. For the same molecule, the “EC50 (read off the curve)” value in [4] was ~100 pM. Besides, the EC50 in test [9] is 20 pM. Further, the EC50 in test [10] was 15 pM. In addition, the “IC50 … in human PBMC” value in test [12] turned out to be 120 pM.
